# T1: CBL G306E (Homo sapiens, UniProt P22681, G306E)
# T1 construct: Residues 25-357 and 2-436 of CBL were cloned in frame into pGEX4T-1; GST (N, cleaved yes); made in house; host or cells: E. coli BL-21
# T1 sequence (P22681 2-436 G306E): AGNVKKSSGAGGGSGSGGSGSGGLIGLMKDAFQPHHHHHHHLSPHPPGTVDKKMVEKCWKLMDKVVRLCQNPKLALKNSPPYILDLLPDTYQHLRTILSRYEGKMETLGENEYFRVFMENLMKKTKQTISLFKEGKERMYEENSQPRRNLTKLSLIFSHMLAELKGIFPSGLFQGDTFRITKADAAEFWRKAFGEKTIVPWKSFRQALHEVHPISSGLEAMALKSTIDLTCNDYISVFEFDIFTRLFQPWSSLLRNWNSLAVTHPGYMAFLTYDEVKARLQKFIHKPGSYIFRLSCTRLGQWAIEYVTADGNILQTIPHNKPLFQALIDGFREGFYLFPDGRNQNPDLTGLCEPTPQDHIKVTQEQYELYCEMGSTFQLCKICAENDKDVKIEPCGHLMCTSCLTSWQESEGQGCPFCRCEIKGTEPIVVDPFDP
# B1: pSLAP2: tyrosine phosphorylated SLAP2 expressed in TKB1 cells (protein, UniProt Q9H6Q3 2-261, looked up)
# Src-like-adapter 2: GSLPSRRKSLPSPSLSSSVQGQGPVTMEAERSKATAVALGSFPAGGPAELSLRLGEPLTIVSEDGDWWTVLSEVSGREYNIPSVHVAKVSHGWLYEGLSREKAEELLLLPGNPGGAFLIRESQTRRGSYSLSVRLSRPASWDRIRHYRIHCLDNGWLYISPRLTFPSLQALVDHYSELADDICCLLKEPCVLQRAGPLPGKDIPLPVTVQRTPLNWKELDSSLLFSEAATGEESLLSEGLRESLSFYISLNDEAVSLDDA
# modifications: tyrosine phosphorylated
# notes: tyrosine phosphorylated SLAP2 expressed in TKB1 cells
# Target: T1, CBL G306E
# Assay: In vitro ubiquitination assays with CBL mutant G306E
# Type: biochemical
# Settings: CBL mutant that abolishes phospho-tyrosine binding
# Protocol: Thus, we tested whether the ability of SLAP2 to promote CBL ubiquitination activity is influenced by canonical TKBD-phospho-tyrosine interactions.
# In vitro ubiquitination reactions were prepared with 20 pmol of CBL or pCBL and 60 pmol of hSLAP2 or phosphorylated hSLAP2 (pSLAP2) for both WT and mutants. Reagents were thawed and reactions prepared on ice. […]
# Ubiquitination reactions were set up as above (25 µL total volume) in triplicate and diluted with reaction buffer after completion (1:40 for pCBL, 1:15 for all other reactions). […] Wells were washed four times with PBS-T and 25 µL of prepared Immobilon Western Chemiluminescent HRP Substrate (Millipore #P90719) added to each well immediately prior to the plate being read on a Synergy Neo2 Plate Reader (BioTek Instruments). […] Standard deviation of the reaction averages was calculated and used as a measure of error. Each reaction set was analyzed at least twice with fresh protein purifications.
molecule,measurement,value
B1,CBL G306E ubiquitination activity,stimulated CBL G306E ubiquitination activity

# — patent US20230212239A1, “INHIBITORS OF CBL AUTOINHIBITION AND RELATED METHODS” (THE HOSPITAL FOR SICK CHILDREN, priority 2020, published 2023)
